This is an account of results in a protein production outcome set (Wang et al. 2014).

The data set in a line: label from the status in PepcDB records.
As for “MLETLHLTPLDRWIDAWLAHQRALGRAYDNEGWILGHLRRFIVSSEAGDLDQKGFDRWCASLRHLSPTTRRGRQFVVRKLCLFRRRAEPGCFVPDSIYFARKLPYRRPVILEPAQVSRMLAAADGLAPTTNSPLLPAVMRLATIILYTAGLRRGELARLTLDDVEPQSGLLRIRQSKFHKSRLVPLSPDAAGALRTYLHLRLAPSFNADPSSALLCCGRAGRRGYTGAGLGQAINRLFVTADVRDSEGRLPRVHDIRHSFGVQALIRWYRAGADVQSCLPSLAIYMGHVSVVSTAHYLHFVPTMRELASSRFEAAFGNIVVEAKP”, the protein production entry is on record as “failed”.

On to “MLFAAEGGGFFSSSASGYSNGLALLLLGQKTEQKPIKVSSQWNHYHLVLEDSDTGFRLDSSKNWLSSACTSLICFGRKSERLESEGKKDEAPSVEDYNNCEVTNRFALKSSLKKRSFSDVVIGDDDVSRDGVVDHIDRRKVQWPDTCGIEIAEVREFEPRYGCFLL”, for which the protein production entry is recorded as “failed”.

Turning to “MLFEASLVAVWAFFCGIDKYDVALNIHRPLITGPVVGLIMGDMQIGLIAGATLELAWLGLVPNAGAQPPDVTMGTIAAVAFAVMTGQSPEVAMGVGMPIAVLMQMLVIGFFAMTSFTMGKADKYAEEANTNGIDFLLLSTITMRSMLYAVIAFLTVYFGEHGAAWIDANAPKTLLEGLGIGAKMVPAIGFAMLLKIMWSKEVAGVFFIGFVMTTYLQLPIMAVAILGASAAALYYFFSGNGNKNSNQEFEDFEDGI”, the protein production entry is reported as “failed”.

Regarding “MLFELVILFVILFLFLGYPISKAWDSFQSKKENSSSILKFEPQEILSICLSYFIFGLGIMWNANDVRGGIPLHKFEKNGMMSDQYASLAHDHIAIVVLLVILGAVSYWRLTKGLTKLSPIFYIFYSTLMIVNIVYTFIYITHTGFAFYTELGGLRYIPVFCIQVGMLAFSLLFIAKLRNTLDYFIQSQNEKDYTQSNRIILLLYRISFGYQKMATVWMISLFPVLLIIQFILILFGQKPDSFIRVFMETSSFNYSKIPAPSPQIVSGDGHYLCTVSVKGHKNIVKPLRAGIRHGERITVNRQLLIANAFENVIEERVPKCHKVIRNFYDKYGYPISKHINTKWSADFVYILMKPLEWFFLFVLYTVDKNPENRIHIQYSELRK”, the protein production result was “failed”.

“MLFLDSVAMKEKPEGREEYPFSVPAMRHLERLEFKTPITFFAGNNGSGKSTLLEGLAAGMTAYAIGNHGDVKGDLYLQHAETVAKAFYFARKKYPKIRMFLRAEDVLGYIRRQNENALDDFRWEREKALKKGEDFPEETPEIFRGIVRNNSLDRRSHGEGFLDIMHRRLHGAGLYFLDEPESPLSPQKQLELAAIIRQAADSGGQLIIATHSPVLLAIPEATIYYFDEDGITERLYDELENIAFLRRFLDRPSKYLDDLEHHHHHH”: the protein production result was “not failed”.

As for “MLFPLILQRPMLSTPTLPRKTFAFLLGGVLLVGLVACGSSTPMAPASSASSALESAAADSLLRQVKTQIREATDEGSLDSLKQARAWAKQATGGDRAALAHYYAALADYRMSNRLPEEDEARRGRVIEDAIGHLKRATEINGTMADAWALLSGYYGQMMGMNPMQGMSLGPKANEAMKRAKEHGPNNPRVWIIDGTSDFYTPGMFGGDKEKALTKFEKAARLAEQGSPDDPLMPGWGHAEAHAWVGVAHMEAERYDPARTAFEAALDLNPDYGWVRSVLLPRLEQQAG”, the protein production result is recorded as “failed”.

For the sequence “MLFQDDKGVGVAIYRRRFTVLGCASSPGVPRINGDWGACDPQNPRNRRTRAAFMVEQIGPDGGKTTVVIDTGPDFREQMIAAKVQAVDAVLYTHAHADHLHGIDDLRIYFALQKSRIPIWADPVTMARIRDGFAYCLETPAGSNYPPIVRPQLIADINDPVIIDGAGGPIPFKVHMQQHGDVHSLGFRIGDVAYCTDVSDFPAESLPKLTGLDVLVIDALQYRYHPSHLSLEQALGWIEALAPKRAILTHMHIPLDYDTVMRETPDHVEPAYDQMRFEVEIEAP”, the protein production result was “failed”.

As to “MLGGTAPKIAKAYQKTLTTNLNDVKNRLKDVTFKPKVLHFVNATNLNQVDGTGTIVNEWIKAAGGQNALKQKGNMISVTTETLAKSDPDVIIVGSATTAEARAALKKNAVLSKLTAVKKNRVYGNPQGTFPWDRYSAEEALQVLWAAKKLHPDQFQLEHHHHHH”, the protein production entry is “not failed”.

In the case of “MLGGVIVVKKAIAALGIGAVAVSVSSINASALEKGTVTASALNIRSGPSSDCDKVAKLYKGKTVEILEKSNGWYKVRVSSSVVGWGSAKYISTSGSSEGTSSQNNSTSSGTTISGNGKVNVSSRLNVRSGAGTNYSLVGKANNGDVVKLLEQSNGWYKIKLSNGVTGWASSQYISKTSEDVGTNNSSNSNSTNNSDKKPSSEESIEGKNGKVTSAVSLNVRSGPGTSYSIIGKLNGGDVVELKAKSNGWYKVKLSSGTIGWVSASYISETNEDTKEKPNSSSNQNSQSNSNSKPSFTGNSDKSTAKGSTIVDFAYTLIGIPYQWGASGPDKFDCSGFTQYVFKHSVGVSIPRVSREQANFGSAISMGNYAPGDLVYFDTDGDGTTNHVGIYVGNSKFIHCSGTQTNPNKVKVDNLTSSYWSKVLLGARRFV”, the protein production result is “failed”.

As to “MLGKSQKDDHKTTFNKHKKTFSIIVAIKDESKQVIESLVENLKRINYERYEVIIVSDDDESKFREYLEIKFPENFRLIRRESNSGGKAGALNFASRISKGDYLVFMDADARVNEDFLQRLNNKDYVACSLKIIIYDTSTSIQSYYAEFTEKVMDMMFKGRSKLGLPIFPNGSAFSIRRDTLLSIGGWKENAIAEDLELGIRMYLNDLKNLFYDDVVVFLKSPYTLMDLYNQIQRWSYGSSQLLKSSLKLLKKGIKGFEGLLYSQQWVIYPLFFTVLGVYGILTPVFNITQTYLLLLILIYGISVVFYSQVLNQKRVDIKILKTILDASITGYLKGLFGLKYKWRVTPKILDKGGRLIEDNNIPLISIPFYLISFFDASMGFVLSSIVILLVALIESF”, the protein production result is “failed”.

As for “MLGYLLLYMIFGGILLAYGSDWFIEGSTRVAKHFNVSNFVIGATIVAFGTSLPEIVTSSGAALSGSPGLAVGNAIGSCIANIGIILGISVLMYPLIIKKRAIIKNGNIYLIATILLVILGYNGFSRFDGLILFLFMIIYVIYTIKTSESDEEEIISDITVKKASIFIVVGLLAVILGSDLFIGGAKGIAEYFNVPESIIGFSLVAFGTSLPELASSVAAAKRKLGSIVLGNVIGSNIANTCVALSFSAMIVDIPKYNVELMVNTIMALLIIFTMNREKIKKMLNFKNFRTDYFSKIDRIDGISYILIYLIFLAYLLGYIF”, the protein production entry is listed as “failed”.

As for “MLHGFLRLAAGAGRSLAVPAILLALGAPAQAGSLLEDCANDKLTPPNRIVACTNVLEDKAASASDQAVAYFNRANALDRNGEFDRAIADYDKAIAFNPKDAEAFNNRGLIWGHKKDFDRALADYDKAIELNPQIAIAYANRGLIWNDIKHDYVKAIADFDKAIRLDPENNGLYNLRGNAYLRKGDYDQAITSYSQAIFLDSQDPNQYFNLGLAWTTKGNLERAIADYSQAISLDANHAEAYRWRADAWVKRGDTDQALSDYTEAIRLDPGDAETFRNRARIWERKRDYDRAIADYDQAIAFAPNDAVAYNGRGWMWSLKHETDRAIVDYVKATAFDPNYVLAYDNLGLAWWDKGDLDRAISAFDQAVIVDPKYAPAYNDRGLARMDKNQYDLAIADYNMAILIDAGFVSAYRNRGNAWNRKGQFDYAIADFDQAIDHDPDDADAYVGRGRSRIYKADYTKAIADLDQAIRIGPKSARAHDTRGLAMVYKADYAGALADYDEAIRLSPKNASAYRNRGIASFYFGPPAKAQADFEQAAAIKPGDSYHAIWLDLARRRNGQPSILVDAKLDMTRWPAAVVRLLLGQQTPEATLLAADNPDATKKSEQLCEANFYVAEFQRLQHHDEEALRLYRLALGGCPRDFIEYTAATSALRVMGKAP”, the protein production result is “failed”.

As to “MLHGKGCKKDVKIIVWSGLLFLCLAARALATGVVGYLPMSDGEYAQKRALKPLLTLPYSVSPDQTWHFRQVGVSGVTLLPEPKKDNEWRISGKDRAGNSWVVPVGRLINLAGNAQFYRADLDRNGIQDLVIWLGNPGLGLAPSAQYIIFTFLKNGRPCVFEPWGFYTATDTGVDDLLDLQGNGRTQLLDMQFDSGYWITNLYQVKDARWQRVHGWFGRLSYPALTRFNHYPGRKLIIKPIAGRNPQTDDLSLTQRCLIRGNVLPGVNQD”, the protein production result is on record as “failed”.

As for “MLHHVEINVDHLEESIAFWDWLLGELGYEDYQSWSRGKSYKHGKTYLVFVQTEDRFQTPTFHRKRTGLNHLAFHAASREKVDELTQKLKERGDPILYEDRHPFAGGPNHYAVFCEDPNRIKVEIVAP”, the protein production result is “not failed”.

With “MLHTEKVEYVNQAHEDITGIARDKSIGTNLRDLTFFRQHNALAEQTLAKIFRGDQAKGEVQFSRTDGSRYWLKYIVSQFITDRGNHYALVSGEENSDEHLEHHHHHH”, the protein production result was “failed”.

Turning to “MLHVHILSWVLAIILFIATYLNYSKTQGASPYYKPLHMALRLFMLLTLISGFWELIEEFMAASNGEGGNHMLLTLKMLCGLAVIAFMEISIAKRKKQQTSHKFFWITIILIIITMAIGVILPWGPISKIFGIS”, the protein production entry was “failed”.

With “MLIFGFIGLFFLNIFSLHAQGIVTNKDAQEEFKWALNSYNNGIYDDALLSFKKILSFDPNNLDYHFWTGNVYYRLGYVEEALMEWRNLKDQGYKVPYLRHLISTIEQRRGIFSNYELNFKKLVKVASLDNSIYKRPHGYQITSLRADKYGGYYAANFVGNEILYFDVNNNVNALVKDGFSYLKSPYDVIEANNLLYVTLYSSDEIGVYDKVLGVKRKSIGNKGTKDGELLAPQYMAIDKRNYIYVSEWGNKRVSKFGLEGDFILHFGSRTSGYKGLLGPTGVTYLNENIYVADSLRNTIEVFDTSGNHLYSVFTSIEGIEGLSSDFVGNNVIVSSKDGVYKYSIAKKTITKILKADKMNSKISSSILDANNQMIVSDFNNAKVSVYKSDASLYDSLNVDVRRIIRLGGPKIYVELNVSSKSGLPVVGLKSENFSISNENYYIVNPKVAYNVNASKDINIAVVFDKSSYMKKYDTDQIVGLNALMELSKNKNFSFINATSVPIIDNIESLTNSIRNTSSLGPYSTDAVKTDVSLKLAGSGLMSKSSRRAVVYFSGGILNRKAFEKYSLDTIVSYYKNNDIRFYLILFGNDPINSKLQYLVNETGGAVIPFSSYEGVSKVYDLILEQKTGTYLLEYYYPGPQEPNKYFNLSVEANINQQTGRGEFAYFINLEHHHHHH”, the protein production result was “failed”.

Consider “MLIINKLNHAQKQLEKLNFIPQQADKVDFLASSSEFKARILQLINTAKSRIYLTALYFEQDEAGQQILAALYQAKLANPALDIQILVDWHRAQRGRIGEKTTSSNADWYANMKQQYNLPPEQEIAVWGVPINGREIFGVLHLKGFIFDDTILYSGASINNVYLQQFDRYRYDRYHTLENKVLADSLVTFLQQHILTDHAVNRLDNMQRPVTANIRPAIKAFRKQLTKQQYQFAEQPESNGLMLSPIAGLGRKNQLNKTIEALFYKTQNKLTICTPYFNFPRSLITRIKWLLENGKQVEIIAGDKKANDFYTPPDKKFTMAAALPYLYEKNLRAFAKRFDSYIQNKLLTIRLWKDGENTYHLKGLWVDNRYILLTGNNLNPRAWGLDAENGILLDDPKAELAEKAALELTQIRTFTQELSHYSDLETIKDYPLEVQKLLKKFGRVKLDKIIKMLLLEHHHHHH”, for which the protein production entry is “failed”.

“MLIITYISACILFLVSFSHVYWAFGGNWGTNSVIPTKAGEKAFTPRAGMTLVIALLLSMAAIILLQQANIVHFAVPNVIIQVGSWICMIVFSIRVIGEFNYFGIFKRQKDTHFARMDTGLYIPLCAFLSLSFLLAIIL”: the protein production entry was “failed”.

“MLILVILLVLVALAFDFINGFHDAANSIATVVSTRVLSPLVAVGWAAFFNFISAMPVLWGAELKVAATMGKGIVHFEQLKAGGISLVLMVVFAALMGAIVWNLLTWWWGLPSSSSHALAGGMIGASLPPLGFAGLIPSGILKIAAFIVLSPLIGMVLGSAMMVATAWVVRKNTPARVDRWFRRLQLVSAAIFSYSHGTNDAQKVMGIISVILYGTIWADRAAMTPGHFPVPFWVVLSCHAAIGLGTMFGGWRIVRTMGHNLTKLQPIGGFCAETGGGVTILALAHFGIPVSTTHTITGAIVGVGSTKGTRAVRWGVAGRIIWAWIFTIPAAAIVAGVIFLVTRAIVSVIGVG”: the protein production result is “failed”.
